Measurements from patent publication CN113045675A (BEIJING ROCK EDGE BIOTECHNOLOGY CO LTD, dated 2021).

Legend:
[1] = biological target: T1, CD22蛋白胞外段 (CD22 extracellular domain, C-terminal His tag) (human, UniProt P20273 20-687); assay: SPR, Biacore T200; CD22 amine-coupled to a CM5 chip; screening of clones by affinity
T1 construct: extracellular domain; also called CD22胞外段蛋白; CD22蛋白分子; not shown: C-terminal His tag
T1 sequence (looked up): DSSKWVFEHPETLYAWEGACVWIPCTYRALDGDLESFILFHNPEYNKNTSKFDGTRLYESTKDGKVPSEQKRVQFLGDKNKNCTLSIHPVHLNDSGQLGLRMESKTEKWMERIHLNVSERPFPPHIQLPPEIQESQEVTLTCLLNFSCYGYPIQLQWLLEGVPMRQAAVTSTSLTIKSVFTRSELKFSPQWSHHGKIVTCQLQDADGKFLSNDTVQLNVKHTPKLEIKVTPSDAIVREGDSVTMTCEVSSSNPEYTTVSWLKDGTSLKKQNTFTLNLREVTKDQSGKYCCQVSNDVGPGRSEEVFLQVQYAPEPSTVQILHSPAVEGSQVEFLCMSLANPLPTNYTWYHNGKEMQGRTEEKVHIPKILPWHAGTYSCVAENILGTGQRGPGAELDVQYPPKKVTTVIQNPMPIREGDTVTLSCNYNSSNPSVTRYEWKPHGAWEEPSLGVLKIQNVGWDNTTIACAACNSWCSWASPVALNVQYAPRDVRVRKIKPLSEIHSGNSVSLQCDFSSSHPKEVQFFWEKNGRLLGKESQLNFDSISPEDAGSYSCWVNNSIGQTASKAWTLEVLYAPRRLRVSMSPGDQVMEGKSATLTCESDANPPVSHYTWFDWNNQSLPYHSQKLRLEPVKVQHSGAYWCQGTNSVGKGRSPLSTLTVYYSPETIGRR

[2] = biological target: T1, CD22蛋白胞外段 (CD22 extracellular domain, …); assay: SPR, Biacore T200; CD22 amine-coupled to a CM5 chip; nanobody at 2, 4, 8, 16 and 32 nM; curve fit

B1: BA125纳米抗体 (BA125 nanobody, VHH against CD22, C-terminal His tag) (VHH)
VHH: QVQLVESGGGLVQPGGSLRLSCAASGSIFGSNTMGWFRQAPGQQRELVAAMSTLGRTSYAVSVKGRFTISRDNAKNTVYLQMNSLKPEDTAVYYCKYTGTTPRDIYWGLGTQVTVSS
notes: also called 纳米抗体BA125克隆; BA125纳米抗体VHH区; not shown: C-terminal His tag
- Kd [1]: ~10 nM
- Kd [2]: 9.47 nM
